The source of these data is US20140093496A1 (Chugai, published 2014).

Changes are numbered by the printed parent chain. In names and notes the source's numbering stands.

Test [1] addresses T1, FcγRIIb extracellular domain with C-terminal His tag (human, UniProt P31994 43-217).
T1 construct: extracellular domain; also called FcgRIIb; FcγRIIb extracellular region; not shown: His tag at the C terminus
T1 sequence (looked up): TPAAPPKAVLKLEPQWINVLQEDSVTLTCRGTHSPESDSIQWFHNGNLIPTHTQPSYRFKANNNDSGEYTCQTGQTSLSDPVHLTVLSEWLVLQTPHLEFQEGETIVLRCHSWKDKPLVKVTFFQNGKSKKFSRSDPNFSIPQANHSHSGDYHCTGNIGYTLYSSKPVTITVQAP
The test can be described thus: SPR, FcγR bound/antibody captured. An excerpt:
(§1) IL6R-L (SEQ ID NO: 22) was utilized as a common antibody L chain for all of the antibodies. These variants were expressed, purified, and expressed by the method of Reference Example 1. […] Interactions of each PD variant with FcγRIIa type R and FcγRIIb were comprehensively evaluated by the method of Reference Example 2.
(§2) With regard to the results of analyzing the interaction with the respective FcγRs, a figure was produced according to the following method.
On the technique in general: In SPR one partner is held on a chip, and binding of the other changes the refractive index at the surface.

Test [2] concerns the target T2, FcγRIIa type R extracellular domain with C-terminal His tag (human, UniProt P12318 34-217).
T2 chain: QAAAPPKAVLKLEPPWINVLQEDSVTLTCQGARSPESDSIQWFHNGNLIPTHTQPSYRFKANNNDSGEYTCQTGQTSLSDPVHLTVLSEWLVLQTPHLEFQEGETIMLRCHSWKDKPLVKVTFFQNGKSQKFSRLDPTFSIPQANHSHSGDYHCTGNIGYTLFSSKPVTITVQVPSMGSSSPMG
The test can be described thus: SPR, FcγR bound/antibody captured.
From the text: as §1, §2

The target of test [3] is T3, FcγRIa extracellular domain, C-terminal His tag (human, UniProt P12314 16-292).
T3 construct: the whole entry is named; also called FcgRIa; CD64A; not shown: His tag at the C terminus
The test can be described thus: SPR (Biacore), antibody captured, FcγR as analyte. An excerpt: (§3) Furthermore, KD(IIaR)/KD(IIb) and KD(IIaH)/KD(IIb) in the table respectively represent the value obtained by dividing the KD value of each variant for FcγRIIaR by the KD value of each variant for FcγRIIb, and the value obtained by dividing the KD value of each variant for FcγRIIaH by the KD value of each variant for FcγRIIb. KD(IIb) of the parent polypeptide/KD(IIb) of the altered polypeptide refers to the value obtained by dividing the KD value of the parent polypeptide for FcγRIIb by the KD value of each variant for FcγRIIb.
(§4) Kinetic analyses for calculating the KD values of each altered antibody for FcγR were performed according to the following method. First, antibodies of interest were captured onto the above-mentioned sensor chips, and an Fcγ receptor diluted with the running buffer was allowed to interact. The Biacore Evaluation Software was used to globally fit the measured results to the obtained sensorgram using the 1:1 Langmuir binding model, and the association rate constant ka (L/mol/s) and the dissociation rate constant kd (1/s) were calculated; and from those values the dissociation constants KD (mol/L) were calculated.

The target in test [4] is T4, FcγRIIa type R extracellular domain, C-terminal His tag (human, UniProt P12318 34-217).
T4 construct: extracellular domain; also called FcgRIIaR; FcγRIIaR; not shown: His tag at the C terminus
T4 sequence (looked up): T2 chain
The test can be described thus: SPR (Biacore), antibody captured, FcγR as analyte.
From the text: as §3, §4

Test [5] addresses T5, FcγRIIa type H extracellular domain with C-terminal His tag (human, UniProt P12318 34-217).
T5 construct: extracellular domain; also called FcγRIIa H; FcγRIIaH; not shown: His tag at the C terminus
T5 sequence (looked up): T2 chain with R134H
The test can be described thus: SPR (Biacore), antibody captured, FcγR analyte.
From the text: (§5) Furthermore, KD(IIaR)/KD(IIb) and KD(IIaH)/KD(IIb) in the table respectively show the value obtained by dividing the KD value of each variant for FcγRIIaR by the KD value of each variant for FcγRIIb, and the value obtained by dividing the KD value of each variant for FcγRIIaH by the KD value of each variant for FcγRIIb. KD(IIb) of the parent polypeptide/KD(IIb) of the altered polypeptide refers to a value obtained by dividing the KD value of the parent polypeptide for FcγRIIb by the KD value of each variant for FcγRIIb.
as §4

Test [6] addresses T6, FcγRIIIa type V extracellular domain with C-terminal His tag (human, UniProt P08637 17-208).
T6 construct: extracellular domain; also called FcγRIIIaV; FcgRIIIaV; not shown: His tag at the C terminus
The test can be described thus: SPR (Biacore), antibody captured, FcγR analyte.
From the text: as §5, §4

For test [7], the target named is T2, FcγRIIa type R extracellular domain …. The test can be described thus: SPR (Biacore), antibody captured, FcγR analyte.
From the text: as §5, §4

Test [8] has as its target T1, FcγRIIb extracellular domain with …. The test can be described thus: SPR (Biacore), antibody captured, FcγR analyte.
From the text: as §5, §4

Test [9] addresses T7, FcγRIIb extracellular domain, C-terminal His tag (human, UniProt P31994 43-217).
T7 construct: extracellular domain; also called FcgRIIb; CD32B; not shown: His tag at the C terminus
T7 sequence (looked up): T1 sequence (looked up)
The test can be described thus: SPR (Biacore), antibody captured, FcγR as analyte.
From the text: as §3, §4

For test [10], the target named is T8, FcγRIa extracellular domain with C-terminal His tag (human, UniProt P12314 16-292).
T8 construct: whole entry named; also called FcgRIa; CD64A; not shown: His tag at the C terminus
The test can be described thus: SPR (Biacore): antibody captured on the chip, FcγR as analyte; amount bound per amount captured, relative to GpH7-B3/GpL16-k0 without mutation = 100. An excerpt:
(§6) B3 variants were expressed and purified using the method of Reference Example 1, and the binding to each FcγR (FcγRIa, FcγRIIa type H, FcγRIIa type R, FcγRIIb, and FcγRIIIa) was comprehensively evaluated using the method of Reference Example 2.
(§7) Figures were produced based on the results of interaction analysis with each FcγR by the method below. […] The value obtained by multiplying this value by 100 was used as an indicator of the relative FcγR-binding activity of each variant.

In test [11] the target is T1, FcγRIIb extracellular domain with …. The test is described as above.
From the text: as §6, §7

Test [12] deals with T9, FcγRIIIa extracellular domain with C-terminal His tag (allotype not given) (human, UniProt P08637 17-208).
T9 construct: extracellular domain; also called CD16A; not shown: His tag at the C terminus
The test can be described thus: SPR (Biacore): antibody captured on the chip, FcγR as analyte; amount bound per amount captured, relative to GpH7-B3/GpL16-k0 without mutation = 100; FcγR concentration not shown.
From the text: as §6, §7

Test [13] concerns the target T5, FcγRIIa type H extracellular domain …. The test can be described thus: SPR (Biacore): antibody captured on the chip, FcγR as analyte; amount bound per amount captured, relative to GpH7-B3/GpL16-k0 without mutation = 100.
From the text: as §6, §7

T6 sequence (P08637 17-208 F176V): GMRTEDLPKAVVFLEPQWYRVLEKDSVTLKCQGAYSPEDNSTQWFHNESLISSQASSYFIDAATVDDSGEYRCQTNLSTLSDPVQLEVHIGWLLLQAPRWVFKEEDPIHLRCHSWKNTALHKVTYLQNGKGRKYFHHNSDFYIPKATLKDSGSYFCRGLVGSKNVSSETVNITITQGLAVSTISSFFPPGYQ
T3 sequence (P12314 16-292): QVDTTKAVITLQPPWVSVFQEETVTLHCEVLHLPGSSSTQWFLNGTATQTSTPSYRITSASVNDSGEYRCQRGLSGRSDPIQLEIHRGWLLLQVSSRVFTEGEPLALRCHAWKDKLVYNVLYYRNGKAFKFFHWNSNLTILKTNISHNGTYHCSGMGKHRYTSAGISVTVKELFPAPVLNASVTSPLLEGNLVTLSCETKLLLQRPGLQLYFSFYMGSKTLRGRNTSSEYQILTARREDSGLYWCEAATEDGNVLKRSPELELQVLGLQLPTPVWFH
T8 sequence (P12314 16-292): as above
T9 sequence (P08637 17-208): as the sequence (P08637 17-208 F176V) above, with V160F counted along it

B1: IL6R-F652/IL6R-L (antibody, human IgG1, kappa)
heavy: QVQLQESGPGLVKPSETLSLTCAVSGHSISHDHAWSWVRQPPGEGLEWIGFISYSGITNYNPSLQGRVTISRDNSKNTLYLQMNSLRAEDTAVYYCARSLARTTAMDYWGEGTLVTVSSASTKGPSVFPLAPSSKSTSGGTAALGCLVKDYFPEPVTVSWNSGALTSGVHTFPAVLQSSGLYSLSSVVTVPSSSLGTQTYICNVNHKPSNTKVDKKVEPKSCDKTHTCPPCPAPELLGGDSVFLFPPKPKDTLYISRTPEVTCVVVDVSHEDPEVKFNWYVDGVEVHNAKTKPREEQYNSTYRVVSVLTVLHQDWLNGKEYKCKVSNKALPAPIEKTISKAKGQPREPQVYTLPPSRDELTKNQVSLTCLVKGFYPSDIAVEWESNGQPENNYKTTPPVLDSDGSFFLYSKLTVDKSRWQQGNVFSCSVMHEALHYHYTQKSLSLSP
light: not shown
notes: IL6R-F11 with P238D; copies: 2 + 2
Regarding B1, the “relative FcγRIIb-binding activity” value in [1] was 100 % of IL6R-F652/IL6R-L. The “relative FcγRIIaR-binding activity” value in test [2] is 100 % of IL6R-F652/IL6R-L.

B2: IL6R-2B172/IL6R-L (antibody, human IgG1, kappa)
heavy: B1 heavy with Y254M, V325M, Y436N, K441E
light: not shown
notes: IgG1; P238D/V323M (EU numbering) introduced into IL6R-B3
On to B2, for which the results for the Kd in [3] and in [4] were 0.003 µM and 6.1 µM, respectively.

B3: IL6R-PD087/IL6R-L (antibody, human IgG1, kappa)
heavy: B1 heavy with G239M
light: not shown
notes: IL6R-F11 with P238D/G237M; copies: 2 + 2
Regarding B3, the Kd (as a rule, the constant that tells how readily two partners part at equilibrium) came to 20 µM in [5], 37 µM in [6] and 22 µM in test [7].

B4: IL6R-PD079/IL6R-L (antibody, human IgG1, kappa)
heavy: B1 heavy with G239A
light: not shown
notes: IL6R-F11 with P238D/G237A; copies: 2 + 2
With B4, the Kd stood at 3 µM in [8], 37 µM in test [6] and 32 µM in test [7].

B5: IL6R-BP136/IL6R-L (antibody, human IgG1, kappa)
heavy: B1 heavy with Y254M, K328A, Y436N, K441E
light: not shown
notes: IgG1; P238D/K326A (EU numbering) introduced into IL6R-B3
In the case of B5, the Kd in test [9] was 0.8 µM.

B6: IL6R-BP102/IL6R-L (antibody, human IgG1, kappa)
heavy: B1 heavy with Y254M, S269Q, Y436N, K441E
light: not shown
notes: IgG1; P238D/S267Q (EU numbering) introduced into IL6R-B3
In the case of B6, the dissociation constant Kd in test [4] turned out to be 8.4 µM; in test [9], 0.9 µM.

B7: IL6R-BP119/IL6R-L (antibody, human IgG1, kappa)
heavy: B1 heavy with Y254M, K328M, Y436N, K441E
light: not shown
notes: IgG1; P238D/K326M (EU numbering) introduced into IL6R-B3
Turning to B7, the dissociation constant (Kd) in test [3] was determined as 0.007 µM; in [4], 9.9 µM.

B8: IL6R-PD042/IL6R-L (antibody, human IgG1, kappa)
heavy: B1 heavy with L236W
light: not shown
notes: IL6R-F11 with P238D/L234W; copies: 2 + 2
Take B8: the equilibrium dissociation constant (Kd) stood at 2 µM in test [8], 37 µM in test [6] and 16 µM in test [7].

B9: IL6R-PD080/IL6R-L (antibody, human IgG1, kappa)
heavy: B1 heavy with G239D
light: not shown
notes: IL6R-F11 with P238D/G237D; copies: 2 + 2
Consider B9, for which the figures for the Kd in [8], in test [6] and in test [7] were 2 µM, 43 µM and 21 µM, respectively.

B10: IL6R-BP117/IL6R-L (antibody, human IgG1, kappa)
heavy: B1 heavy with Y254M, K328D, Y436N, K441E
light: not shown
notes: IgG1; P238D/K326D (EU numbering) introduced into IL6R-B3
For the molecule B10, the figures for the Kd in [4] and in test [9] were 9.2 µM and 0.8 µM, respectively.

B11: IL6R-BP120/IL6R-L (antibody, human IgG1, kappa)
heavy: B1 heavy with Y254M, K328E, Y436N, K441E
light: not shown
notes: IgG1; P238D/K326E (EU numbering) introduced into IL6R-B3
Regarding B11, the figures for the dissociation constant (Kd) in test [4] and in test [9] were 9.6 µM and 1 µM, respectively.

B12: IL6R-BP106/IL6R-L (antibody, human IgG1, kappa)
heavy: B1 heavy with Y254M, H270D, Y436N, K441E
light: not shown
notes: IgG1; P238D/H268D (EU numbering) introduced into IL6R-B3
For B12, the dissociation constant Kd in [3] was determined as 0.004 µM; in test [4] it was 11 µM.

B13: B3 variant of GpH7-B3/GpL16-k0 with mutation A (Pro at position 238 (EU numbering) substituted with Asp) (antibody, human IgG1, kappa)
heavy: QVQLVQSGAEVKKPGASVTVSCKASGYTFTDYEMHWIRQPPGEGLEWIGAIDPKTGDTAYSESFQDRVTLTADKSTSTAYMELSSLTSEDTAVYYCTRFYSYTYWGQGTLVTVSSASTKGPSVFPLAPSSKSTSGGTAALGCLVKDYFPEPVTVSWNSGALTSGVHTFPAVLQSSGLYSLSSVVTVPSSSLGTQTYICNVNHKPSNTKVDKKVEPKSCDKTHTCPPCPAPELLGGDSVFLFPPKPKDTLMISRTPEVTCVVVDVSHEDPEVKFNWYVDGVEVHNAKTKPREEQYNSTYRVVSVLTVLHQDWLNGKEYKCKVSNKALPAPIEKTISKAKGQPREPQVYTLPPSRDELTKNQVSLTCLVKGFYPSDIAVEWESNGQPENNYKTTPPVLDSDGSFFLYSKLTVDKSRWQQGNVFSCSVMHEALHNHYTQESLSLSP
light: DIVMTQSPLSLPVTPGEPASISCQASESLVHSNRNTYLHWYLQKPGQSPQLLIYKVSNRFSGVPDRFSGSGSGTDFTLKISRVEAEDVGVYYCSQNTHVPPTFGQGTKVEIERTVAAPSVFIFPPSDEQLKSGTASVVCLLNNFYPREAKVQWKVDNALQSGNSQESVTEQDSKDSTYSLSSTLTLSKADYEKHKVYACEVTHQGLSSPVTKSFNRGEC
notes: copies: 2 + 2
With B13, the binding result in test [10] is on record as “binds”; in test [11] it was “binds”; in test [12], “no binding”.

B14: B3 variant of GpH7-B3/GpL16-k0 with mutation B (Leu at position 328 (EU numbering) substituted with Glu) (antibody, human IgG1, kappa)
heavy: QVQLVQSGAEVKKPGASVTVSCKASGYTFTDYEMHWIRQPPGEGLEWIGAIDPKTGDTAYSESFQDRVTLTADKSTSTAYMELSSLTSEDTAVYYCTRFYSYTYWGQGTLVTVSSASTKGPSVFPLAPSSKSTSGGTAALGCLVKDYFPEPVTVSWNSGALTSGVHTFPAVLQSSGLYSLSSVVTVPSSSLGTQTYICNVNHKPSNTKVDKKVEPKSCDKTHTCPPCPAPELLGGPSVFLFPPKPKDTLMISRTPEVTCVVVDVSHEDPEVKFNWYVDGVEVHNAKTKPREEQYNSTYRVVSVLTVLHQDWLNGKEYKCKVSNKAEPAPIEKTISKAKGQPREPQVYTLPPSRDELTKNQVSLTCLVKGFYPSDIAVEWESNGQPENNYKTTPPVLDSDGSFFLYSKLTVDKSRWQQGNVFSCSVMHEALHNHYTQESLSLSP
light: B13 light
notes: copies: 2 + 2
As to B14, the binding result in test [10], in [13] and in test [11] was “binds” each time.
